According to the supplement of paper PMC12764529:
± gives the half width of the 95% confidence interval.

Assays:
[1] = folding stability dG unfold (combined trypsin and chymotrypsin); higher = more stable
Procedure, shortened: (§1)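 Sequencing followed digestion of designed mini-proteins with trypsin and chymotrypsin, each at 11 concentrations in threefold dilutions together with a no-protease condition. The mini-proteins were under 80 residues, had no cysteine, sat in a PA-tagged cDNA display construct, and were kept only if AlphaFold2 dimer inter-PAE was above 15. From the counts, Bayesian fitting gave K50, and unfolding free energy was derived against a sequence-predicted unfolded-state K50 and a shared folded-state K50, per protease or combined.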

[2] = folding stability dG unfold from trypsin proteolysis; higher = more stable
Procedure, shortened: as §1

[3] = folding stability dG unfold from chymotrypsin proteolysis; higher = more stable
Procedure, shortened: as §1

SAGGSAGGSAGSLLTETSESVINDTKITHVLEIDPSSGALRLILETKHPDPGIVTVELLPSAGGSAGGSAGG [r17_242_JUSTAS]
folding stability dG unfold [1]: 0.885 ± 0.072 kcal/mol
folding stability dG unfold [2]: 0.943 ± 0.023 kcal/mol
folding stability dG unfold [3]: 0.857 ± 0.061 kcal/mol

SAGTITADDITEIEMQWDPGNGYVQIEIEFPNGYTVNAWMPNDKIEIEVWYPNGKKVEIEFEIKPPGASAGG [r19_121_TrROS]
folding stability dG unfold [1]: 2.39 ± 0.38 kcal/mol
folding stability dG unfold [2]: 1.72 ± 0.22 kcal/mol
folding stability dG unfold [3]: 2.74 ± 0.18 kcal/mol

SAGGDPLVLEFDGVTVVYDPKTKTLVVFAPSSEVERLVKALGPKFEPLEIFELEDGSVVMLVRIKPESAGGS [r8_415_TrMRF]
folding stability dG unfold [1]: 4.35 ± 0.13 kcal/mol
folding stability dG unfold [2]: 3.53 ± 0.12 kcal/mol
folding stability dG unfold [3]: 4.53 ± 0.1 kcal/mol

SAGGMVITIPTTTSSIEEAIEAVKKKVEEEGYKVTEIKDIKVSTDPKTGKINVTATVIVEKLPKEEKSAGGS [r16_155_JUSTAS]
folding stability dG unfold [1]: 2.55 ± 0.3 kcal/mol
folding stability dG unfold [2]: 0.99 ± 0.057 kcal/mol
folding stability dG unfold [3]: 2.85 ± 0.22 kcal/mol

SSVPADAAPVTVTETVTVTLPVDTATGGVPEERVAAAREAAAARGFTEFTVTTDPAAGTVTVTVTRTSRVSA [r9_201_JUSTAS]
folding stability dG unfold [1]: 1.11 ± 0.054 kcal/mol
folding stability dG unfold [2]: 0.77 ± 0.055 kcal/mol
folding stability dG unfold [3]: 1.27 ± 0.035 kcal/mol

SAGGSAGGSGSSTEVTTTTLPDTSYTTTNSTTTTFSPDQPEAVEAGLPVPSTVTTTTTTSPAGSAGGSAGGS [r20_138_JUSTAS]
folding stability dG unfold [1]: 0.59 ± 0.12 kcal/mol
folding stability dG unfold [2]: 0.918 ± 0.056 kcal/mol
folding stability dG unfold [3]: 0.0599 ± 0.1 kcal/mol

SFEIEILDVDPDGWIVITIRYPSPDGKPLTPEEMEEIAEEIALELFPQFPDFKVTIEHDPESGTITIVIRSA [r9_485_TrROS]
folding stability dG unfold [1]: 4.15 ± 0.43 kcal/mol
folding stability dG unfold [2]: 4.25 ± 0.35 kcal/mol
folding stability dG unfold [3]: 3.59 ± 0.3 kcal/mol

SAGGSAGGSMTITKRSDGTIEVEIEISPEHPDVSPEEVKERVKKELEKKGIKTPVKITVKPVPESAGGSAGG [r6_480_JUSTAS]
folding stability dG unfold [1]: 1.92 ± 0.19 kcal/mol
folding stability dG unfold [2]: 1.35 ± 0.044 kcal/mol
folding stability dG unfold [3]: 2.27 ± 0.14 kcal/mol

SAGPDKPLKIESIGGKFNPDNGVISIKLKVEDPGDGKTYDYTMQFPVRDPDNGKPYMFTFPMRIKVPDSAGG [r19_129_TrROS]
folding stability dG unfold [1]: 0.607 ± 0.13 kcal/mol
folding stability dG unfold [2]: 0.645 ± 0.072 kcal/mol
folding stability dG unfold [3]: 0.647 ± 0.16 kcal/mol

SAGGSAGGSAGGMELELTFATPEQAVEYAERFERLGYEVEVEYYPETGLVRVRVRLYPEESAGGSAGGSAGG [r7_623_TrMRF]
folding stability dG unfold [1]: 3.76 ± 0.074 kcal/mol
folding stability dG unfold [2]: 3.97 ± 0.11 kcal/mol
folding stability dG unfold [3]: 3.6 ± 0.072 kcal/mol

SAGMTITLDGVEITVERVRDEETGEWYYRVTVTVTTEDGEKVTITVTVPEGMTPEQVEALARELAEALASAG [r5_704_TrROS_Hall]
folding stability dG unfold [1]: 4.54 ± 0.19 kcal/mol
folding stability dG unfold [2]: 5.12 ± 0.42 kcal/mol
folding stability dG unfold [3]: 4.37 ± 0.096 kcal/mol

SAGGSAGGDNWYHITIFRMKIKEVEPRKDPDGEKEPQFNFKIKEVVTIPIPPNDPEKLKDALGASAGGSAGG [r6_738_TrROS]
folding stability dG unfold [1]: 1.37 ± 0.12 kcal/mol
folding stability dG unfold [2]: 0.745 ± 0.079 kcal/mol
folding stability dG unfold [3]: 1.84 ± 0.13 kcal/mol

SAGGKLKIKIGDKEYTVESVEIIEERPLPGGGPVYLIRLKFKDGPALIEIPPNIPSSISNNGTLVAGSAGGS [r16_638_TrMRF]
folding stability dG unfold [1]: 1.75 ± 0.095 kcal/mol
folding stability dG unfold [2]: 1.36 ± 0.04 kcal/mol
folding stability dG unfold [3]: 1.95 ± 0.058 kcal/mol

SAGGSAGGSAGGMEIEKNENGELIIKFKSKEEAEKAIEELKKKGYKVELNEDGYLIIKPSAGGSAGGSAGGS [r10_1027_TrROS_Hall]
folding stability dG unfold [1]: 3.96 ± 0.13 kcal/mol
folding stability dG unfold [2]: 3.34 ± 0.16 kcal/mol
folding stability dG unfold [3]: 4.07 ± 0.14 kcal/mol

SAGMKEIKIKDAKIEVKKKKDGKKVKRITLKDGKEIEIKEDGSIIIRNKKTGKYIKLPKNMTIEELLKKSAG [r5_348_TrROS_Hall]
folding stability dG unfold [1]: 1.48 ± 0.098 kcal/mol
folding stability dG unfold [2]: 0.925 ± 0.09 kcal/mol
folding stability dG unfold [3]: 1.74 ± 0.029 kcal/mol

SAGGKKYVLIKVKVRVEKEVNGEKKEVELELEILVPVDEETGKTPEEKAKELAKKLPPEVTEVKIEPVSAGG [r13_335_TrROS_Hall]
folding stability dG unfold [1]: 2.21 ± 0.31 kcal/mol
folding stability dG unfold [2]: 1.63 ± 0.15 kcal/mol
folding stability dG unfold [3]: 2.86 ± 0.061 kcal/mol

SAGGSAGGSAGGSSEPVVILVPVLPDAEEAVVDIGGHPALVKRFPDSPLAAITVPKELLSAGGSAGGSAGGS [r4_430_TrMRF]
folding stability dG unfold [1]: -0.149 ± 0.066 kcal/mol
folding stability dG unfold [2]: 0.0985 ± 0.033 kcal/mol
folding stability dG unfold [3]: -0.581 ± 0.048 kcal/mol

SAGGSAGGSAGEKTLKIVADSEEEAEALAKELAEKYNLEVTIERNPEEEGKYVITIKIKPSAGGSAGGSAGG [r11_797_TrROS_Hall]
folding stability dG unfold [1]: 3.17 ± 0.17 kcal/mol
folding stability dG unfold [2]: 2.46 ± 0.14 kcal/mol
folding stability dG unfold [3]: 3.5 ± 0.045 kcal/mol

SAGGSAGGSAGGGMTVLSFTMPKEEVEKYFEEKGLDATEMTISPGPGDTYSVTVLDPGSSAGGSAGGSAGGS [r10_999_JUSTAS]
folding stability dG unfold [1]: 0.151 ± 0.12 kcal/mol
folding stability dG unfold [2]: 0.33 ± 0.089 kcal/mol
folding stability dG unfold [3]: -0.0653 ± 0.17 kcal/mol

SAGGAFEMSNEYWFPDGFRVKLKVEVYPNGMFMLDLEIEPIPPPPPIKIEKDPDGEYKYDPNGQPQKDSAGG [r13_151_TrROS]
folding stability dG unfold [1]: 2.91 ± 0.38 kcal/mol
folding stability dG unfold [2]: 2.58 ± 0.18 kcal/mol
folding stability dG unfold [3]: 3.36 ± 0.18 kcal/mol

SAGGSAGGSAGGDAPNTTVTVTLKAEVYYDPSTGALVVKVTAYFPATNTTVTLEFTFPLSAGGSAGGSAGGS [r10_187_TrMRF]
folding stability dG unfold [1]: 4.76 ± 0.72 kcal/mol
folding stability dG unfold [2]: 3.66 ± 0.24 kcal/mol
folding stability dG unfold [3]: 4.66 ± 0.25 kcal/mol
